Test results: patent publication US6656471

Biological target: HLA class I (human)
Test: cell-based or functional assay

## W6/32, the class I-specific antibody, from hybridoma culture supernatants (ATCC: HB95)
  reduction in HIV-1 envelope-specific CTL activity (PBMCs from LB, E:T 25:1, 1:4 dilution of W6/32 supernatant): 73%
  specific lysis value with W6/32 (E:T 25:1): 6.2%
  specific lysis value without W6/32 (E:T 25:1): 23.2%
